Assay results: US11795460B2, “Compositions and methods for TTR gene editing and treating ATTR amyloidosis” (Intellia Therapeutics, Inc., priority 2017, dated 2023)
Strand notation (5' to 3'): a small letter for the sugar, then the base; units joined by * are phosphorothioate-linked, units joined directly phosphodiester-linked; [ ] holds rarer units or linkages, { } end groups; capitals alone tell only the bases. m = 2'-O-methyl; r = 2'-OH (RNA)

Tests used:
HuTTR V30M locus = experiment: Liver editing in humanized transgenic V30M mouse model of hereditary ATTR amyloidosis; assay type: in vivo; settings: V30M humanized mice, single 1 mg/kg dose of LNP
Procedure: (§1) Unless otherwise noted, CD-1 female mice, ranging from 6-10 weeks of age were used in each study. Animals were weighed and grouped according to body weight for preparing dosing solutions based on group average weight. LNPs were dosed via the lateral tail vein in a volume of 0.2 mL per animal (approximately 10 mL per kilogram body weight). […] Body weight was measured at twenty-four hours post-administration, and animals were euthanized at various time points by exsanguination via cardiac puncture under isoflourane anesthesia. Blood was collected into serum separator tubes or into tubes containing buffered sodium citrate for plasma as described herein. […]
(§2) To quantitatively determine the efficiency of editing at the target location in the genome, sequencing was utilized to identify the presence of insertions and deletions introduced by gene editing. […]
(§3) Additional PCR was performed per the manufacturer's protocols (Illumina) to add chemistry for sequencing. […] The reads were aligned to a reference genome (e.g., the human reference genome (hg38), the cynomologus reference genome (mf5), the rat reference genome (rn6), or the mouse reference genome (mm10)) after eliminating those having low quality scores. […]

human TTR protein = experiment: Human TTR protein ELISA in serum and cerebrospinal fluid of V30M mice; assay type: in vivo, mouse; settings: V30M humanized mice, single 1 mg/kg dose, 8 weeks post treatment
Procedure: A well-established humanized transgenic mouse model of hereditary ATTR amyloidosis that expresses the V30M pathogenic mutant form of human TTR protein was used in this Example. This mouse model recapitulates the TTR deposition phenotype in tissues observed in ATTR patients, including within the peripheral nervous system and gastrointestinal (GI) tract (See Santos et al., Neurobiol Aging. 2010 February; 31(2):280-9).
Mice (aged approximately 4-5 months) were dosed with LNP formulations prepared using the cross-flow and TFF procedures as described in Example 1. The LNPs were formulated with an N:P ratio of 6.0 and contained Lipid A, Cholesterol, DSPC, and PEG2k-DMG in a 50:38:9:2 molar ratio, respectively. The LNPs contained Cas9 mRNA (SEQ ID NO: 1) and either G000481 (“G481”) or a non-targeting control guide G000395 (“G395”; SEQ ID NO: 273), in a 1:1 ratio of gRNA:mRNA by weight.
Mice were injected via the lateral tail vein as described in Example 1 with a single 1 mg/kg (of total RNA content) dose of LNP with an n=10/group. […] Human TTR protein levels were measured in serum and cerebrospinal fluid (CSF) by ELISA as previously described by Butler et al., Amyloid. […] Other tissues (stomach, colon, sciatic nerve, dorsal root ganglion (DRG)) were collected and processed for semi-quantitative immunohistochemistry as previously described by Gonsalves et al., Amyloid. […]

murine TTR = experiment: Liver editing in mice with murine TTR dosed with LNP formulations (Table 29); assay type: in vivo, mouse; settings: wild type CD-1 mice; 1, 0.3, 0.1, 0.03, or 0.01 mg/kg; FIG. 15A
Procedure: as §1, §2, §3

B1: G000481: TTR sgRNA modified sequence, Human, SEQ ID No. 88; guide sequence of CR003345 (nucleic acid)
guide: mU*mC*mU*rArGrArArCrUrUrUrGrArCrCrArUrCrArGrGrUrUrUrUrArGrAmGmCmUmAmGmAmAmAmUmAmGmCrArArGrUrUrArArArArUrArArGrGrCrUrArGrUrCrCrGrUrUrArUrCrAmAmCmUmUmGmAmAmAmAmAmGmUmGmGmCmAmCmCmGmAmGmUmCmGmGmUmGmCmU*mU*mU*mU
Editing of TTR in livers (HuTTR V30M locus; 8 weeks post treatment): 49.4% | Share of editing events that were insertions (HuTTR V30M locus; remainder deletions): 96.8% | TTR protein levels in CSF (human TTR protein): not in CSF | Knockdown of TTR plasma levels (human TTR protein; p<0.001): greater than 99%

B2: G000502: TTR Cyno specific sgRNA modified sequence, SEQ ID No. 114; guide sequence of CR000689; cross homologous between mouse and cyno (nucleic acid)
guide: mA*mC*mA*rCrArArArUrArCrCrArGrUrCrCrArGrCrGrGrUrUrUrUrArGrAmGmCmUmAmGmAmAmAmUmAmGmCrArArGrUrUrArArArArUrArArGrGrCrUrArGrUrCrCrGrUrUrArUrCrAmAmCmUmUmGmAmAmAmAmAmGmUmGmGmCmAmCmCmGmAmGmUmCmGmGmUmGmCmU*mU*mU*mU
Liver editing, dose response (murine TTR): A dose response for both editing and serum TTR levels was evident
